Reference: paper PMC4490337, “Revisiting the intraperoxisomal pathway of mammalian PEX7” (Scientific Reports, 2015)

B1: ΔC1PEX5L, recombinant protein comprising amino acid residues 1-324 of the large isoform of human PEX5 (domain or fragment)
chain: not shown
B2: radiolabeled pre-phytanoyl-CoA hydroxylase (35S-prePHYH) (natural protein, human, UniProt O14832 1-338, looked up)
chain: MEQLRAAARLQIVLGHLGRPSAGAVVAHPTSGTISSASFHPQQFQYTLDNNVLTLEQRKFYEENGFLVIKNLVPDADIQRFRNEFEKICRKEVKPLGLTVMRDVTISKSEYAPSEKMITKVQDFQEDKELFRYCTLPEILKYVECFTGPNIMAMHTMLINKPPDSGKKTSRHPLHQDLHYFPFRPSDLIVCAWTAMEHISRNNGCLVVLPGTHKGSLKPHDYPKWEGGVNKMFHGIQDYEENKARVHLVMEKGDTVFFHPLLIHGSGQNKTQGFRKAISCHFASADCHYIDVKGTSQENIEKEVVGIAHKFFGAENSVNLKDIWMFRARLVKGERTNL
modifications: [35S]methionine label
notes: human phytanoyl-CoA hydroxylase, precursor form with the PTS2 (prePHYH); cDNA amplified with primers from the start to the stop codon and cloned into pGEM4 (pGEM4-prePHYH); also called radiolabeled prePHYH; source: in vitro translated (TNT T7 quick coupled kit, rabbit reticulocyte lysate), not purified

Experiments:
[1] = target: T1, PEX7 (in vitro synthesized) (human, UniProt O00628 1-323, unlabeled in the native-PAGE analyses; [35S]methionine label in the import/export assays); test: cell-based or functional assay
T1 sequence (looked up): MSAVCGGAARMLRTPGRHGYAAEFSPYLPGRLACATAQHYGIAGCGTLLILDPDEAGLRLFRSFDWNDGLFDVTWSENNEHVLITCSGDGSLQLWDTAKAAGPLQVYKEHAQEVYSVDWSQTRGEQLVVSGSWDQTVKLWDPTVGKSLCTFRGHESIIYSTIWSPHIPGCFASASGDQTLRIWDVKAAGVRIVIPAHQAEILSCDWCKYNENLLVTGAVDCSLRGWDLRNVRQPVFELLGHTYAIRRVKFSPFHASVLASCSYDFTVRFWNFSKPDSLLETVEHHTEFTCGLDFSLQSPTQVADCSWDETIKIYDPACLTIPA

[2] = target: T1, PEX7 (in vitro synthesized); test: native gel or EMSA; chase of the pre-assembled trimeric ΔC1PEX5L-PEX7-35S-prePHYH complex with excess recombinant prePHYH (100 ng) at 23 °C, aliquots over 8 h; band intensity against time; conditions: partners not purified

Row | Binder | amount of 35S-labeled PEX7 exported from peroxisomes in 15 min after pre-incubation with ΔC1PEX5L, against pre-incubation with export-incompetent ΔC1PEX5L(C11A) [1] [fold] | half-life of prePHYH in the trimeric complex (with m3) [2] [h]
1 | B1 | ~2 | –
2 | B2 | – | 3.06
